In publication PMC8976717 (The Plant journal : for cell and molecular biology, 2021):

Target: the molecule itself
Assay: non-reducing SDS-PAGE

B1: GAUT1Δ167 (Arabidopsis GALACTURONOSYLTRANSFERASE 1, truncated at the in vivo cleavage site between residues 167 and 168) (enzyme, Arabidopsis thaliana, UniProt Q9LE59 168-673, looked up)
chain: RANELVQHNDDTILKLENAAIERSKSVDSAVLGKYSIWRRENENDNSDSNIRLMRDQVIMARVYSGIAKLKNKNDLLQELQARLKDSQRVLGEATSDADLPRSAHEKLRAMGQVLAKAKMQLYDCKLVTGKLRAMLQTADEQVRSLKKQSTFLAQLAAKTIPNPIHCLSMRLTIDYYLLSPEKRKFPRSENLENPNLYHYALFSDNVLAASVVVNSTIMNAKDPSKHVFHLVTDKLNFGAMNMWFLLNPPGKATIHVENVDEFKWLNSSYCPVLRQLESAAMREYYFKADHPTSGSSNLKYRNPKYLSMLNHLRFYLPEVYPKLNKILFLDDDIIVQKDLTPLWEVNLNGKVNGAVETCGESFHRFDKYLNFSNPHIARNFNPNACGWAYGMNMFDLKEWKKRDITGIYHKWQNMNENRTLWKLGTLPPGLITFYGLTHPLNKAWHVLGLGYNPSIDKKDIENAAVVHYNGNMKPWLELAMSKYRPYWTKYIKFDHPYLRRCNLHE
  binding result: binds
